Assay: yeast display, Sf9 membrane polyspecificity reagent, FACS + sequencing; frameworks hold sequencing errors
How it was run: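 Synthetic nanobody libraries on Saccharomyces cerevisiae BJ5465 were galactose-induced for 36–48 hours, stained 1 hour at 4 °C with 10% biotinylated, detergent-solubilized Sf9 membrane reagent and enriched on streptavidin microbeads. FACS then separated cells into low and high (top ~1%) gates by anti-HA (expression) and streptavidin (reagent binding) fluorescence. Genes were colony-PCR amplified, MiSeq 2 × 250 sequenced and CDR-length filtered. A clone's polyreactivity label is that of its gate of origin.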
For “QVQLVESGGGLVQAGGSLRLSCAASGSIFPKYAMGWYRQAPGKERELVAAITSSGGRTYYADSVKGRFTISRDNAKNTVYLQMNSLKPEDTAVYYCAARSPRASGNSDYWGQGTQVTVSS”, the “polyreactivity (PSR sort gate)” value was “high polyreactivity”. With “QVQLVESGGGLVQAGGSLRLSCAASGSIFPLYDMGWYRLAPGKERELVAGITGSGGSTYYADSVKGRFTISRDNAKNTVYLQMNSLKPEDTAVYYCAADYSLYGWWFRNDYWGQGTQVTVSS” the “polyreactivity (PSR sort gate)” value was “low polyreactivity”. In the case of “QVQLVESGGGLVQAGGSLRLSCAASGSIFPPYTMGWYRQAPGKERELVAAISWGGGSTYYADSVKGRFTISRDNAKNTVYLQMNSLKPEDTAVYYCAAGRYYRGYYWGQGTQVTVSS”, the “polyreactivity (PSR sort gate)” value is reported as “high polyreactivity”. For “QVQLVESGGGLVQAGGSLRLSCAASGSIFPPYVMGWYRQAPGKERELVASITTSGGSTYYADSVKGRFTISRDNAKNTVYLQIKSLKPEDTAVYYCAARWYYGGKSAGPGGGYWGQGTQVTVSA”, the “polyreactivity (PSR sort gate)” value was “low polyreactivity”. With “QVQLVESGGGLVQAGGSLRLSCAASGSIFPRNAMGWYRQAPGKERELVARINSGGTTKYADSVKGRFTISRDNAKYTVFLQMNSLKPEDTAGYYCNADTYILDPLRKSYGYDYWGQGTQVTVSS” the “polyreactivity (PSR sort gate)” value was “low polyreactivity”. In the case of “QVQLVESGGGLVQAGGSLRLSCAASGSIFPRYAMGWYSQAPGKERELVATISYRGGTTYYADSVKGRFTISRDNEKNTVYLQMNSLKPEDSAVYYCNTLYYRGIYDPWGQGTQVTVSS”, the “polyreactivity (PSR sort gate)” value is reported as “high polyreactivity”. In the case of “QVQLVESGGGLVQAGGSLRLSCAASGSIFPRYGMGLYRQAPGKERELVAAITTGGNTYYADSVKGRFTISRDNAKNTVYLQMNSLKPEDTAVYYCNARAVTPWFGFYYWGQGTQVTVSS”, the “polyreactivity (PSR sort gate)” value is reported as “low polyreactivity”. In the case of “QVQLVESGGGLVQAGGSLRLSCAASGSIFPSYAMGWYRQAPGKERELVAAINWDGGSTFYADSVKGRFTISRDNAKNTVYLQMKSLKPEDTAVYYCAAPDNYGGVGGITFWRMDYWGQGTQVTVSS”, the “polyreactivity (PSR sort gate)” value is reported as “low polyreactivity”. In the case of “QVQLVESGGGLVQAGGSLRLSCAASGSIFPSYAMGWYRQAPGKERELVATIGRGGTTNYADSVKGRFTISRDNAKNTVYLQMNSLKPEDTEVYYCNAERIWRYKYGYDYWGQGTQVTVSS”, the “polyreactivity (PSR sort gate)” value is reported as “high polyreactivity”. With “QVQLVESGGGLVQAGGSLRLSCAASGSIFPSYAMGWYRQAPGKERELVATISGSGTSTYYADSVKGRFTISRDNAKNTVYLQMNSLKPEDTAVYYSAADPWLGTGRYDYWGQGTQVTVSS” the “polyreactivity (PSR sort gate)” value was “low polyreactivity”. With “QVQLVESGGGLVQAGGSLRLSCAASGSIFPTNTMGWYRQAPGKERELVASINSDGSTNYADSVKGSFTISRDNAKNTVYLQMNSLKPEDTAVYYWAADTQGSEYEFWGQGTQVTVSS” the “polyreactivity (PSR sort gate)” value was “low polyreactivity”. For “QVQLVESGGGLVQAGGSLRLSCAASGSIFPTYALGWYRQAPGKERELVAAISSIVGGTYYADSVKGRFTISRDNAKNTVYLQMNSLKPEDTAVYYCNKTKFQGYDYWGQGTQVTVSS”, the “polyreactivity (PSR sort gate)” value was “low polyreactivity”. With “QVQLVESGGGLVQAGGSLRLSCAASGSIFPTYVMGWYRQAPGKERELVAAISARGDSTYADSVKGRFTISRDNAKNTVYLQMNSLKPEDTAVYYCAKSAHSDYVYSRLEFGYWGQGTQVTVSS” the “polyreactivity (PSR sort gate)” value was “low polyreactivity”. For “QVQLVESGGGLVQAGGSLRLSCAASGSIFPVNAMGWYRQAPGKERELVAAISSDGTTYYADSVKGRFTISRDNAKNTVYLQMNSLKPEDTAVYYCAKDRRYYKAYDYWGQGTLVTVSS”, the “polyreactivity (PSR sort gate)” value was “low polyreactivity”. With “QVQLVESGGGLVQAGGSLRLSCAASGSIFPVYAMGWYRQAPGKERELVASISTGGSTYYADSVKGRFTISRDNAKNTVYLQMNSLKPEDTAVYYCSATGWAYGYGYGYWGQGTQVTVSS” the “polyreactivity (PSR sort gate)” value was “low polyreactivity”. For “QVQLVESGGGLVQAGGSLRLSCAASGSIFPWNAMGWYRKAHGKARELVAVISQNGGRTYYADSVKGSFTISRDKAKNTVYLQMNSLKPEDTAVYYCAARPRLPRQIGGDGHLDDYWGQGTQVTVSS”, the “polyreactivity (PSR sort gate)” value was “high polyreactivity”. With “QVQLVESGGGLVQAGGSLRLSCAASGSIFPWNAMGWYRQAPGKERELVAAISYSGTRTYYADSVKGRFTISRDNAKNTVYLQMNSLKPVDTAVYYCNARGYTRSYVKYDYWGQGTQVTVSS” the “polyreactivity (PSR sort gate)” value was “high polyreactivity”. With “QVQLVESGGGLVQAGGSLRLSCAASGSIFPWYAMGWYRQAPWKERELVAGISSGGGTNYADSVKGRFTISRDNAKNTVYLQMNSMKPEDTAVYYCNADYFGGGDYWGQGTQVTVSS” the “polyreactivity (PSR sort gate)” value was “low polyreactivity”. In the case of “QVQLVESGGGLVQAGGSLRLSCAASGSIFPWYVMGWYRQAPRKERELVASITYRGASTYYADSVKGRFTISRDNAKNTVYLQMNSLKPEDTAVYYCADFRSYYSERHDYGYWGQGTQVTVSS”, the “polyreactivity (PSR sort gate)” value is reported as “low polyreactivity”. For “QVQLVESGGGLVQAGGSLRLSCAASGSIFPYNAMGWYRQAPGKERELVAAISRSGGSTYYADSVKGRFTISRDNAKNTVYLQMNSLKPEDTAVYYCAAYSLYWRDDYWGQGTQVTVSS”, the “polyreactivity (PSR sort gate)” value was “high polyreactivity”. In the case of “QVQLVESGGGLVQAGGSLRLSCAASGSIFPYNAMGWYRQAPGKERELVATISSGGSTNYADSVKGRFTISRDNAKNTVYLQMNSLKPEDTAVYDCAADVIVFYYAPNYWGDIGYGYWGQGTQVTVSS”, the “polyreactivity (PSR sort gate)” value is reported as “low polyreactivity”. In the case of “QVQLVESGGGLVQAGGSLRLSCAASGSIFPYNVMGWYRQAPGKERELVAVITGSTGRTYYADSVKGRFTISRDNAKNTVYLQMNSLKPEDTAVYYCAKRRYWAPYDYWGQGTQVTVSS”, the “polyreactivity (PSR sort gate)” value is reported as “high polyreactivity”. With “QVQLVESGGGLVQAGGSLRLSCAASGSIFPYYAMGWYRQAPGKEREFVAAITISGGSTYYADSVKGRFTISRDNAKNTVYLQMNSLKPEDTAVYYCNADKGYVYGDTFYQSGGYYSWGQGTQVTVSS” the “polyreactivity (PSR sort gate)” value was “low polyreactivity”. For “QVQLVESGGGLVQAGGSLRLSCAASGSIFPYYAMGWYRQAPGKERELVAAISSGDITDYADSVKGRFTISRDNAKNTVYLQMNSLKPEDTAVYYCAAVYDLGYYGPIWAIVLDDYWGQGTQVTVSS”, the “polyreactivity (PSR sort gate)” value was “low polyreactivity”. For “QVQLVESGGGLVQAGGSLRLSCAASGSIFPYYAMGWYRQAPGKERELVAAITLSGGRTYYADSVKGRFTISRDNAKNTVYLQMNSLKPEDTAVYYCNVYRSKKRYGWGEDDYWGQCTQVTVSS”, the “polyreactivity (PSR sort gate)” value was “high polyreactivity”. In the case of “QVQLVESGGGLVQAGGSLRLSCAASGSIFPYYAMGWYRQAPGKETELVAVINSGGITNYADSVKGRFTISRDNAKNTVYLQMNSLKPEDTAVYYCAAAASPLTRHLYWGQGTQVTVSS”, the “polyreactivity (PSR sort gate)” value is reported as “low polyreactivity”. In the case of “QVQLVESGGGLVQAGGSLRLSCAASGSIFPYYTMGWYRQAPGKERELVAAISGSGTSTYYADSVKGRFTISRDNAKNTVYLQMNSLKPEDTADYYCAAPDPDKVRSEGYGYWGQGTHVTVSS”, the “polyreactivity (PSR sort gate)” value is reported as “low polyreactivity”. With “QVQLVESGGGLVQAGGSLRLSCAASGSIFQAYVMGWYRQAPGTERELVATIDRRGGITYYADSVKGRFTISRDNAKNNVYLQMNSLKPEDTAVYYCATALIVLGPSRYEYWGQGTQVTVSS” the “polyreactivity (PSR sort gate)” value was “high polyreactivity”. With “QVQLVESGGGLVQAGGSLRLSCAASGSIFQDYAMGWYRQAPGKERELVAAITSDGSTYYADSVKGRFTISRDNAKNTVYLQMNSLKPEDTAVYYCATDKLYGRTVRMDYWGQGTQVTVSS” the “polyreactivity (PSR sort gate)” value was “low polyreactivity”. For “QVQLVESGGGLVQAGGSLRLSCAASGSIFQFNGMGWYRQAPGKERELVASINWSGGSTNYADSVMGRFTISRDNAKNTVYLQMNSLKAEDTAVYYCAVGHRIYRSRYNYWGQGTQVTVSS”, the “polyreactivity (PSR sort gate)” value was “low polyreactivity”. With “QVQLVESGGGLVQAGGSLRLSCAASGSIFQFYAMGWYRQAPGKERELVAAITGDGSTDYADSVKGRFTISRDNAKNTVYLQMNSLKPEDTAVYYCAADLWRYLGWYYIYHYDYWGQGTQVTVSS” the “polyreactivity (PSR sort gate)” value was “low polyreactivity”. In the case of “QVQLVESGGGLVQAGGSLRLSCAASGSIFQGNVMGWYRQAPGKERELVAAIRNSGGTTYYADSVKGRFTISRDNAKNTVYLQMNSLKPEDTAVYYCAARYINRYPKAQPTDRSIYYWGQGTQVTVSS”, the “polyreactivity (PSR sort gate)” value is reported as “high polyreactivity”. For “QVQLVESGGGLVQAGGSLRLSCAASGSIFQGYAMGWYRQAPGKERELVAAITYSGGRTYYADSVKGRFTISRDNAKNTVYLQMNSLKPEDTAVYYCAALTRRVKKYDYWGQGTQVTVSS”, the “polyreactivity (PSR sort gate)” value was “high polyreactivity”. In the case of “QVQLVESGGGLVQAGGSLRLSCAASGSIFQGYAMGWYRQAPGKERELVAGITSSGGRTRYADSVKGRFTISRDNAKNTVFLQMNSLKPEDTAVYYCAADYVRHIGYNYWGQGTQVTVSS”, the “polyreactivity (PSR sort gate)” value is reported as “high polyreactivity”. With “QVQLVESGGGLVQAGGSLRLSCAASGSIFQGYSMGWYRQAPGKERELVAAITASGGSTYYADSVKGRFTISRDNAKNTVYLQMNSLKPEDTAVYYCATDSYWRQDLYRYEYWGQGTQVTVSS” the “polyreactivity (PSR sort gate)” value was “high polyreactivity”. With “QVQLVESGGGLVQAGGSLRLSCAASGSIFQIYAMGWYRPAPGKERELVAAINSGGITKYADSVKGRFTISRDNAKNTVYLQMNSLKPEDTAVYYCAKRYGWPYGRFDYWGQGTQVTVSS” the “polyreactivity (PSR sort gate)” value was “low polyreactivity”. With “QVQLVESGGGLVQAGGSLRLSCAASGSIFQPNAMGWYRQAPGKERELVASIRGRGGDTYYADSVKGRFTISRDTAKNTVYLQMNSLKPEDTAVYYCAADYRWGQGTQVTVSS” the “polyreactivity (PSR sort gate)” value was “low polyreactivity”. In the case of “QVQLVESGGGLVQAGGSLRLSCAASGSIFQWYAMGWYRQAPGKERELVAAISWDGDSTYYADSVKGRFTISRDNAKNTVYLQMNSMNPEDTAVYYCAADYEWEYEYWGQGTQVTVSS”, the “polyreactivity (PSR sort gate)” value is reported as “high polyreactivity”. With “QVQLVESGGGLVQAGGSLRLSCAASGSIFQYYPMGWYRQAPGKERELVAAINSGGRTNYADSVKGRFTISRDNAKNTVYLQMNSLKPEDTAVYYCAKRLSTRASFGEEDSWGQGTQVTVSS” the “polyreactivity (PSR sort gate)” value was “low polyreactivity”. In the case of “QVQLVESGGGLVQAGGSLRLSCAASGSIFRAYAMGWYRQAPGKERELVAAISWGGGSTSYADSVKGRFTLSRDNAKNTVYLQMNSLNPEDTAVYYCNKVSLSKRRDYYWGQGTQVTVSS”, the “polyreactivity (PSR sort gate)” value is reported as “high polyreactivity”. In the case of “QVQLVESGGGLVQAGGSLRLSCAASGSIFRAYAMGWYRQAPGKERELVAAITWSGGRTFYADSVKGRFTISRDNAKNTVYLQMNSLKPEDTAVYYCAAFVYQRGRIYDYWGQGTQVTVSS”, the “polyreactivity (PSR sort gate)” value is reported as “high polyreactivity”. With “QVQLVESGGGLVQAGGSLRLSCAASGSIFRAYAMGWYRQAPGKERELVAGITKSGGSTYYADSVKGRFTISRDHAKNTVYLQMNSLKPEDTAVYYCAAYRSRTYGYWGQGTQVTVSS” the “polyreactivity (PSR sort gate)” value was “high polyreactivity”. For “QVQLVESGGGLVQAGGSLRLSCAASGSIFRDYVMGWYRQAPGKERELVAAISGNDGSTYYADSVKGRFTISRDNAKNTVYLQLNSLKPEDTAVYYCNADEASTFPQFYSYLDFDYWGQGTQVTVSS”, the “polyreactivity (PSR sort gate)” value was “low polyreactivity”.

From the nanobody polyreactivity screen of Harvey et al. (2022)
